Results taken from patent US20220153859A1 (ANOKION, published 2022).
Positions count from the first letter of the chain named.

Tests used:
[1] = biological target: T1, Human glycophorin A on human erythrocytes (human, UniProt P02724 20-150); assay: FACS (flow cytometry) on human erythrocytes (hRBCs)
T1 construct: whole, on cells; Target of the flow cytometry assays on human erythrocytes; also called human GPA; hGPA
T1 sequence (looked up): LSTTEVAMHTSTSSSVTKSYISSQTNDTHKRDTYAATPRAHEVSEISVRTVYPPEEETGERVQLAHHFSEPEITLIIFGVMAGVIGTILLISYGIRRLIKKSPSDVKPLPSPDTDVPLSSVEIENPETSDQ
Summary of the method: (§1)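 After selection through next-generation-sequencing enrichment and phage ELISA screens, Fabs were expressed solubly in HEK cells. The highest-ranked ones were purified using CH1 resin. Their EC50 for binding human or cynomolgus erythrocytes came from flow cytometry.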

[2] = biological target: T2, Cynomolgus glycophorin A on cynomolgus erythrocytes (cynomolgus monkey); assay: FACS (flow cytometry) on cynomolgus erythrocytes (cRBCs)
T2 construct: whole, on cells; also called cyno GPA; cyno erythrocytes
Summary of the method: as §1

[3] = biological target: T1, Human glycophorin A on human …; assay: flow cytometry on human erythrocytes, Fab in culture supernatant [C]
Summary of the method: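 Fabs chosen from one CDR library by next-generation-sequencing enrichment were expressed as soluble Fabs in HEK cells in high-throughput format. Fab concentration in the culture supernatant was quantified by Octet biolayer interferometry. Supernatant Fabs were tested for binding to human erythrocytes by flow cytometry, read as median fluorescence intensity curves. These curves were compared with the parental Fab.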

[4] = biological target: T3, Human glycophorin A extract (hGPA extract) (human, UniProt P02724 20-150); assay: Octet BLI, hGPA extract, apparent; biphasic off-rate to fit data
T3 construct: also called human GPA extracted from red blood cells (extract)
T3 sequence (looked up): T1 sequence (looked up)

[5] = biological target: T1, Human glycophorin A on human …; assay: flow cytometry (FACS) on human erythrocytes, soluble Fab
[6] = biological target: T3, Human glycophorin A extract (hGPA …); assay: Biacore SPR, hGPA extract, apparent; biphasic off-rate to fit data
[7] = biological target: T3, Human glycophorin A extract (hGPA …); assay: Biacore SPR, hGPA extract, apparent KD; biphasic off-rate to fit data
[8] = biological target: T3, Human glycophorin A extract (hGPA …); assay: Octet BLI, hGPA extract, apparent KD; biphasic off-rate to fit data
[9] = biological target: T3, Human glycophorin A extract (hGPA …); assay: Biacore SPR, hGPA extract, apparent KD
[10] = biological target: T3, Human glycophorin A extract (hGPA …); assay: Octet BLI, hGPA extract, apparent
[11] = biological target: T3, Human glycophorin A extract (hGPA …); assay: Octet BLI, hGPA extract, apparent KD
[12] = biological target: T3, Human glycophorin A extract (hGPA …); assay: Biacore SPR, hGPA extract, apparent

B1: CDRL2_18 (Fab, V domains shown)
VH: QVQLVQSGAEVKKPGASVKVSCTASGFNIKDTYMLWVRQAPGQGLEWMGRIDPANANSRYDPKFQGRVTITADTSTNTAYMELSSLRSEDTAVYYCVDGYMFAYWGQGTLVTVSS
VL: DVVMTQTPLSLSVTPGQPASISCKSSQSLLYSNGKTYLHWLLQKPGQSPQRLIYLLNRLHSGVPDRFSGSGSGTDFTLKISRVEAEDVGVYYCVQGTHFPLTFGQGTKLEIKR
notes: copies: 1 + 1
[1]
  EC50: 2.5 nM
[2]
  EC50: 8.3 nM

B2: CDRL2_33 (Fab, V domains shown)
VH: B1 VH
VL: B1 VL with L56N, N57S
notes: copies: 1 + 1
[1]
  EC50: 4.4 nM
[2]
  EC50: 8.3 nM

B3: CDRL2_37 (Fab, V domains shown)
VH: B1 VH
VL: B1 VL with L56S
notes: copies: 1 + 1
[1]
  EC50: 2.8 nM
[2]
  EC50: 10.1 nM

B4: CDRL2_49 (Fab, V domains shown)
VH: B1 VH
VL: B1 VL with L59M, H60S
notes: column Notes: 'ELISA Hit'; copies: 1 + 1
[1]
  EC50: 4.4 nM
[2]
  EC50: 13 nM

B5: hF-3-103M1 Fab (humanized 3-103, clone M1; parental / wild-type Fab) (Fab, V domains shown)
VH: B1 VH
VL: B1 VL with L56V, N57S, R58K, H60D
notes: Soluble humanized Fab; also called parent Fab
[3]
  binding result: binds

B6: CDRH1_1 (Fab, V domains shown)
VH: B1 VH with K30R, D31A, M34I
VL: B1 VL with L56V, N57S, R58K, H60D
notes: copies: 1 + 1
[1]
  EC50: 4.3 nM
[2]
  EC50: 11.6 nM

B7: CDRH1_14 (Fab, V domains shown)
VH: B1 VH with K30R, D31N, T32I, M34L
VL: B1 VL with L56V, N57S, R58K, H60D
notes: column Notes: 'Duplicate ELISA hit'; copies: 1 + 1
[1]
  EC50: 4.2 nM
[2]
  EC50: 10.8 nM

B8: CDRH1_15 (Fab, V domains shown)
VH: B1 VH with K30R, D31K, M34I
VL: B1 VL with L56V, N57S, R58K, H60D
notes: copies: 1 + 1
[1]
  EC50: 3.1 nM
[2]
  EC50: 10.6 nM

B9: CDRH1_24 (Fab, V domains shown)
VH: B1 VH with D31T, T32V, M34I
VL: B1 VL with L56V, N57S, R58K, H60D
notes: copies: 1 + 1
[1]
  EC50: 3.1 nM
[2]
  EC50: 10.6 nM

B10: CDRH1_25 (Fab, V domains shown)
VH: B1 VH with D31H, T32V, M34I
VL: B1 VL with L56V, N57S, R58K, H60D
notes: copies: 1 + 1
[1]
  EC50: 3.1 nM
[2]
  EC50: 10.2 nM

B11: CDRL2_32 (Fab, V domains shown)
VH: B1 VH
VL: B1 VL with H60S
notes: copies: 1 + 1
[1]
  EC50: 4.2 nM
[2]
  EC50: 11.1 nM

B12: Humanized & affinity matured 10F7-M10 Fab clone L1+2-5 (Fab)
heavy: EVQLLESGGGLVQPGKSLRLSCKASGYTFNSYFMHWVRQAPGKGLEWVGMIRPNGGTTDYNEKFKNRFTLSVDKSKNTAYLQMNSLRAEDTAVYYCARWEGSYYALDYWGQGTASTKGPSVFPLAPSSKSTSGGTAALGCLVKDYFPEPVTVSWNSGALTSGVHTFPAVLQSSGLYSLSSVVTVPSSSLGTQTYICNVNHKPSNTKVDKKVEPKSC
light: EITLTQSPATLSLSPGERATLSCRASSNVYNMYWYQQKPGQAPRLWIHRTSNLASGIPDRFSGSGSGTDYTLTISRLEPEDFAVYYCQQFTSSPYTFGQGTKVEVKRTVAAPSVFIFPPSDEQLKSGTASVVCLLNNFYPREAKVQWKVDNALQSGNSQESVTEQDSKDSTYSLSSTLTLSKADYEKHKVYACEVTHQGLSSPVTKSFNRGEC
notes: Soluble Fab from HEK cells; all domains other than VL are the same as wild-type 10F7-M10; also called YN-HR-N
[4]
  koff: 0.0081 s⁻¹
  kon: 790000 M⁻¹ s⁻¹
[5]
  EC50: 8.8 nM
[6]
  koff: 0.00808 s⁻¹
  kon: 795000 M⁻¹ s⁻¹
[7]
  Kd: 10.2 nM
[8]
  Kd: 10 nM

B13: Humanized & affinity matured 10F7-M10 Fab clone L1+2-7 (Fab)
heavy: B12 heavy
light: B12 light with Y30H, N31H, R49H, N52L
notes: Soluble Fab from HEK cells; all domains other than VL are the same as wild-type 10F7-M10; also called HH-HH-L
[4]
  koff: 0.0037 s⁻¹
  kon: 160000 M⁻¹ s⁻¹
[5]
  EC50: 6.9 nM
[6]
  koff: 0.00371 s⁻¹
  kon: 160000 M⁻¹ s⁻¹
[7]
  Kd: 23.2 nM
[8]
  Kd: 23 nM

B14: Humanized & affinity matured 10F7-M10 Fab clone L1+2-16 (Fab)
heavy: B12 heavy
light: B12 light with Y30F, N31Q, R49H, N52E
notes: Soluble Fab from HEK cells; all domains other than VL are the same as wild-type 10F7-M10; also called FQ-HH-E
[4]
  koff: 0.0038 s⁻¹
  kon: 610000 M⁻¹ s⁻¹
[5]
  EC50: 4.6 nM
[6]
  koff: 0.00376 s⁻¹
  kon: 608000 M⁻¹ s⁻¹
[7]
  Kd: 6.18 nM
[8]
  Kd: 6.18 nM

B15: Humanized & affinity matured 10F7-M10 Fab clone L1+2-19 (Fab)
heavy: B12 heavy
light: B12 light with N31Q, R49H, N52F
notes: the tie is by these residues, not by the label; also called YQ-HH-F
[4]
  koff: 0.0033 s⁻¹
  kon: 480000 M⁻¹ s⁻¹
[5]
  EC50: 4.6 nM
[6]
  koff: 0.00326 s⁻¹
  kon: 477000 M⁻¹ s⁻¹
[7]
  Kd: 6.83 nM
[8]
  Kd: 6.83 nM

B16: Humanized & affinity matured 10F7-M10 Fab clone L1+2-28 (Fab)
heavy: B12 heavy
light: B12 light with N31W, R49H, N52D
notes: Soluble Fab from HEK cells; all domains other than VL are the same as wild-type 10F7-M10; also called YW-HH-D
[9]
  Kd: 3.49 nM
[10]
  koff: 0.0021 s⁻¹
  kon: 610000 M⁻¹ s⁻¹
[5]
  EC50: 3.7 nM
[11]
  Kd: 3.5 nM
[12]
  koff: 0.00214 s⁻¹
  kon: 614000 M⁻¹ s⁻¹

B17: Humanized & affinity matured 10F7-M10 Fab clone L1+2-35 (Fab)
heavy: B12 heavy
light: B12 light with N31W, R49H, N52E
notes: Soluble Fab from HEK cells; all domains other than VL are the same as wild-type 10F7-M10; also called YW-HH-E
[9]
  Kd: 16.7 nM
[10]
  koff: 0.0014 s⁻¹
  kon: 81000 M⁻¹ s⁻¹
[5]
  EC50: 4.6 nM
[11]
  Kd: 17 nM
[12]
  koff: 0.00136 s⁻¹
  kon: 81300 M⁻¹ s⁻¹

B18: Humanized & affinity matured 10F7-M10 Fab clone L1+2-39 (Fab)
heavy: B12 heavy
light: B12 light with Y30F, N31F, R49H, N52V
notes: Soluble Fab from HEK cells; all domains other than VL are the same as wild-type 10F7-M10; also called FF-HH-V
[9]
  Kd: 4.82 nM
[10]
  koff: 0.0012 s⁻¹
  kon: 250000 M⁻¹ s⁻¹
[5]
  EC50: 2.7 nM
[11]
  Kd: 4.8 nM
[12]
  koff: 0.00121 s⁻¹
  kon: 250000 M⁻¹ s⁻¹
